Measurements taken from the DeepSol protein solubility set.

Assay: soluble on expression in E. coli; label from the status in PepcDB or PDB records

Row | Sequence | soluble on expression in E. coli
1 | MNGIIVDKEKVHPGMPDVVKDAKIALLDAPLEIKKPEFDTNLRIEDPSMIQKFLAQEENMLREMVDKIKSVGANVVITQKGIDDMAQHYLSRAGIYAVRRVKKSDMDKLAKATGASIVSTIDEISSSDLGTAERVEQVKVGEDYMTFVTGSKNHHHHHH | soluble
2 | VEGRFQLVAPYEPQGDQPQAIAKLVDGLRRGVKHQTLLGATGTGKTFTISNVIAQVNKPTLVIAHNKTLAGQLYSELKEFFPHNAVEYFVSYYDYYQPEAYVPQTDTYIEKDAKINDEIDKLRHSATSALFERRDVIIVASVSCIYGLGSPEEYRELVVSLRVGMEIERNALLRRLVDIQYDRNDIDFRGTFRVRGDVVEIFPASRDEHCIRVEFFGDEIERIRAEVDALTGKVLGEREHVAIFPASHFVTREEKMRLAIQNIEQELEERLAELRAQGKLLEAQRLEQRTRYDLEMMREMGFCSGIENYSRHLALRPPGSTPYTLLDYFPDDFLIIVDESHVTLPQLRGMYNGDRARKQVLVDHGFRLPSALDNRPLTFEEFEQKINQIIYVSATPGPYELEHSPGVVEQIIRPTGLLDPTIDVRPTKGQIDDLIGEIRERVERNERTLVTTLTKKMAEDLTDYLKEAGIKVAYLHSEIKTLERIEIIRDLRLGKYDVLVGINLLREGLDIPEVSLVAILDADKEGFLRSERSLIQTIGRAARNANGHVIMYADTITKSMEIAIQETKRRRAIQEEYNRKHGIVPRTVKKEIRDVIRATYAAEETEMYEAKPAAAMTKQEREELIRTLEAEMKEAAKALDFERAAQLRDIIFELKAEG | soluble
3 | MGSDKIHHHHHHMSEKQQILDYIETNKYSYIEISHRIHERPELGNEEIFASRTLIDRLKEHDFEIETEIAGHATGFIATYDSGLDGPAIGFLAEYDALPGLGHACGHNIIGTASVLGAIGLKQVIDQIGGKVVVLGCPAEEGGENGSAKASYVKAGVIDQIDIALMIHPGNETYKTIDTLAVDVLDVKFYGKSAHASENADEALNALDAMISYFNGVAQLRQHIKKDQRVHGVILDGGKAANIIPDYTHARFYTRAMTRKELDILTEKVNQIARGAAIQTGCDYEFGPIQNGVNEFIKTPKLDDLFAKYAEEVGEAVIDDDFGYGSTDTGNVSHVVPTIHPHIKIGSRNLVGHTHRFREAAASVHGDEALIKGAKIMALMGLELITNQDVYQDIIEEHAHLKGNGK | not soluble
4 | KDFVSDVLPTIAECYHHLGQEDELVEFLRACIDKKAGVSAELMLAQLVAHHESVGAAQELLTKQLLKNPTMKGFYRLIDYHIAEAEDGRAKDSLSTLQAMVGEQLKVKPHYRCRKCGFSTHSLYWHCPSCKGWGTIKPIRGLDGE | not soluble
5 | MSFTPANRAYPYTRLRRNRRDDFSRRLVRENVLTVDDLILPVFVLDGVNQRESIPSMPGVERLSIDQLLIEAEEWVALGIPALALFPVTPVEKKSLDAAEAYNPEGIAQRATRALRERFPELGIITDVALDPFTTHGQCGILDDDGYVLNDVSIDVLVRQALSHAEAGAQVVAPSDMMDGRIGAIREALESAGHTNVRVMAYSAKYASAYYGPFRDAVGSASNLGKGNKATYQMDPANSDEALHEVAADLAEGADMVMVKPGMPYLDIVRRVKDEFRAPTFVYQVSGEYAMHMGAIQNGWLAESVILESLTAFKRAGADGILTYFAKQAAEQLRRGR | soluble
6 | MGSDKIHHHHHHMELLNSMSKSLDQLLSLVNHSEIASIKATLSKIIEVIHNPESSVMDLKNLIEIDPPLAANVLRRANSAFYGMRRGIHSIMDAIIFIGFDAVKELTLNQKFFELFQKNGVEIHGYSRRVLWEHSIGVALCGKLIYRREFRKNGGDMYTAGLIHDIGIIVEDQFLHAELLSILADKEEHERDLHSAEADVLGYCHEDIGKRLAEDWNFPEELCLVLGEAERPETSEGPRLLLADTLYVANCACQLRKVGFSELGRLDRPAYEDCLNRLRIKERALDFIMDEVNAQIALMKNDGWF | not soluble
7 | MKLGFIGLGIMGSPMAINLARAGHQLHVTTIGPVADELLSLGAVNVETARQVTEFADIIFIMVPDTPQVEDVLFGEHGCAKTSLQGKTIVDMSSISPIETKRFAQRVNEMGADYLDAPVSGGEIGAREGTLSIMVGGEQKVFDRVKPLFDILGKNITLVGGNGDGQTCKVANQIIVALNIEAVSEALVFASKAGADPVRVRQALMGGFASSRILEVHGERMINRTFEPGFKIALHQKDLNLALQSAKALALNLPNTATCQELFNTCAANGGSQLDHSAMVQALELMANHKLS | soluble
8 | GPGSMMLQPWLRRGSGATQKYVNGEFKDVPQGDALLVCVPEAHTWFSLHKMLCDPECRRRYPYTQSKKELILRIRRFLNDTLVDQIPALASVQRALEELSFMQPPSDTEAKFKSSLTIEQVPRIMAAVEASRTHSWEDVANTFAAMLKDPRIKNEDAMRMARIFDEMFAENERPK | not soluble
9 | MGSDKIHHHHHHALGGCGLVPKQPITQQPMTALPPMPPQAQSPGSIFNPGYAGRPLFEDQRPRNVGDILTIVIQENVNATKSSGANANRSGNTNFNVPTAGFLGGLFGKTNLSATGANVFSGTGGANASNTFNGTITVTVTGVLPNGNLMVSGEKQMLINQGDEFVRFSGVVNPNTISNLNAVYSTQVADAKIEYSAKGYLNEAENMGWLQRFFLNVSPW | not soluble
10 | MSDDEDEGRLQIDESPSDSEDKPSISAPPPLPPPLQETPEFQTTYDAHDQAETSGKEDGELDEDDENDDIEPMEIDEEIQLEIDEKPEDLVKDEQISEPTDKMREEFLKVEKTDENAVVESTSSFSPKLIDEQDLKVEEMSDEKHAQSPVSSDMTTSKSPTPSKKENGLMKPPQSTEKAQRKRKESTDIFSSEKRKLSLETVASSSSSSGSSNLSTTPQRSKRSSSHMATIAISACFTDEDIVSVPMMPIQKTPDTAPHSKRAKRDIGTNVITTRSTDTSGLLCNEAIMDTPPGSQMTLEVTVMYRTKNSLAFRVKGCDLIGFIGDGLPPMASSLTNNIASSMGNNNNKKKTASSSGNEEGKDGRSSSASSNGRGARGGSVLKDGKGDKQKGKRKKEETNDDDLEDENQNNEQYGSKKCELVEVDVAQLHDCHYDGCEKRFQKTTDLEYHISKNHKRRVMMYESICTQTSISSLETQNNSTQIDDDLPPMPQMPILKKEVPIKTPIGNVYEDLSDDDSETKPTDLVLKTPSSSASSAVATLMGIAQVSSSTTSATTSVVPPVGAQRSTPATPVSAKIGINPSMVANALAEKNKQQQQQQQKLNQLQPPHNPSLSTAPSSSSAQPPTMIQAHPMAGVFIPPPFHPAMMNPQMAAMMDQQRIAVAMSQQQQMSRTPSRQTISVSDSHKIHELAKSRENQQRQQSATPKTPSESVSTTGVVTPQRQFLPPQMMQPGTPQSILLQQQQQQQQQQQQAAAQHQIIQQMQMQMQRGMAPQMANQELLMMMMGMPHMVQGVPGFPGVPQLPPK | soluble
11 | MGSDKIHHHHHHMNAPFVPSRVVARLADPGERPAVARFLDAHPDATVFHRAAWLDAVEQSTGHRTHVLVSGQDEAIRAVLPLHEVHSPLFGRALVSTGFGVGGGVVGKGDAALFAAAQELAVRLNCPTVELRGGPLPQGDGWHVKTDSHAGFVTPLAADDEAQLLAIPRKQRAEVRRGLGYGMEVRTGRSPEDRAMHHAVYAQSVRNLGTPVFPRRLFDAVLDGFGDDADILTVLHEGRPLASVLSLYHRGAVMPYWGGGTFEARAMRANDVMYYALMNHARARGCDRFDFGRSKVDSGAYHFKRNWGFAPQPLSYAHWTADGQAPRDVNPLSPRYRARIALWQKLPLAVANRLGPIIANGLA | not soluble
12 | MHHHHHHSSGVDLGTENLYFQSMQRGYLLTRNPHLNKDLAFTLEERQQLNIHGLLPPSFNSQEIQVLRVVKNFEHLNSDFDRYLLLMDLQDRNEKLFYRVLTSDIEKFMPIVYTPTVGLACQQYSLVFRKPRGLFITIHDRGHIASVLNAWPEDVIKAIVVTDGERILGLGDLGCNGMGIPVGKLALYTACGGMNPQECLPVILDVGTENEELLKDPLYIGLRQRRVRGSEYDDFLDEFMEAVSSKYGMNCLIQFEDFANVNAFRLLNKYRNQYCTFNDDIQGTASVAVAGLLAALRITKNKLSDQTILFQGAGEAALGIAHLIVMALEKEGLPKEKAIKKIWLVDSKGLIVKGRASLTQEKEKFAHEHEEMKNLEAIVQEIKPTALIGVAAIGGAFSEQILKDMAAFNERPIIFALSNPTSKAECSAEQCYKITKGRAIFASGSPFDPVTLPNGQTLYPGQGNNSYVFPGVALGVVACGLRQITDNIFLTTAEVIAQQVSDKHLEEGRLYPPLNTIRDVSLKIAEKIVKDAYQEKTATVYPEPQNKEAFVRSQMYSTDYDQILPDCYSWPEEVQ | soluble
13 | MGSDKIHHHHHHMNIQEKSKIEYRSRINRVMDYIDIHLDQPLELKSIAEIANFSPFHFHRIFTFLIGETPIDYIQRLRIEKAACRLRENMDISISEIADSCGFCTVSLFSRVFKKFFGLTPSQFRKTERPVYAQDGILFSKNGQMVSKNLTPKHVLSPQLCSVKFKISYFMETKIEVKEMPDMKAVYCRHMGAFKEIVKAYEKLIKWAEPRGLYIPNVTKSATVTHDDPSVTELSKVRQSACIIVEGDVKGEGEIGNLVIPGGQYAVGHFELGTEDFEKAWNTMCKWFTESGYQQGDGCTYELYHNSHRTHPENKHIVDICIPIKPL | not soluble
14 | SDPVVLSYMDSLLRQSDVSLLDPPSWLNDHIIGFAFEYFANSQFHDCSDHVSFISPEVTQFIKCTSNPAEIAMFLEPLDLPNKRVVFLAINDNSNQAAGGTHWSLLVYLQDKNSFFHYDSHSRSNSVHAKQVAEKLEAFLGRKGDKLAFVEEKAPAQQNSYDCGMYVICNTEALCQNFFRQQTESLLQLLTPAYITKKRGEWKDLIATLAKK | soluble
15 | MASLLFRQARVFDGESVHTDYDVLVVDGKIAQLGSAIEAPADAEIIEAHGKTLLPGLIDSHTHAKPPALEMALTFGVTTELDMFSDPAWMTEQRREAQTRNSMADVRSAMTGASVAGGHPTGLVGVVFDKQCPVLENAEDAEAFVAARVAEGADYFKLVIEDGTILGHEVPRLSDEMVYALVAAAHAQGLMAVAHAMTVELALLAIRAGVDGLMHVAGDRLMTDEEVAEVAQSGIFVVPTLSTMASVYGDKHGQHLAEDDRTRPLLSDAWAENLCQCWHLTNPGSTANVIDATRRLYEAGVDVLAGSDAVTVGVPGTAHGVSMHGELELLVDCGLSPAAALRAATLLPAKRFSLDDRGRIAPGLQADLVLVDGDPTTDVRQTLSIEGVWRRGEQAPRIGQAEGVGTASAASAVAG | soluble
16 | MGSDKIHHHHHHMNRLEIVNNISTNIERERIKLGMSQAQFAKALDMSLSTYKRIANGESSRIDVYTAYLIYKLTGRFSCELTGFNDDVINLVKRIKKLSKSQRILIDSIIDTELALSAYKDESCHTEDLISVLIPTGNMTDGMILDSYNVEKLDVSNYRKAFGDALHIGIRITSNHLHPVYNKGDILLISRNPIRDGDTGIFINAQNKRAYIRKLHQKNPCELTPINNYGETFYVDSDNVDDMSKWIKFGHVLCKVR | not soluble
17 | SQEKVSIEQQLAVESIRKFLNSKTSYDVLPVSYRLIVLDTSLLVKKSLNVLLQNSIVSAPLWDSKTSRFAGLLTTTDFINVIQYYFSNPDKFELVDKLQLDGLKDIERALGVDQLDTASIHPSRPLFEACLKMLESRSGRIPLIDQDEETHREIVVSVLTQYRILKFVALNCRETHFLKIPIGDLNIITQDNMKSCQMTTPVIDVIQMLTQGRVSSVPIIDENGYLINVYEAYDVLGLIKGGIYNDLSLSVGEALMRRSDDFEGVYTCTKNDKLSTIMDNIRKARVHRFFVVDDVGRLVGVLTLSDILKYILLGS | soluble
18 | MEHEGLLVAEREIEVNNYDIDAMGIVSNIVYIRWFEDLRTIFINEYMTFSEMMKEHISPILMKTEIEYKVPITIHDKPVGRCWFVKAGRMKWVFKFEITSGDKVHCIGQQTGGFLDLERQRITKMPLEHHHHHH | not soluble
